B1: EZ-1: Thermotoga maritima acetyl xylan esterase variant C277S, untargeted perhydrolase, SEQ ID NO: 424 (protein, listed as Thermotoga maritima)
chain: MAFFDLPLEELKKYRPERYEEKDFDEFWEETLAESEKFPLDPVFERMESHLKTVEAYDVTFSGYRGQRIKGWLLVPKLEEEKLPCVVQYIGYNGGRGFPHDWLFWPSMGYICFVMDTRGQGSGWLKGDTPDYPEGPVDPQYPGFMTRGILDPRTYYYRRVFTDAVRAVEAAASFPQVDQERIVIAGGSQGGGIALAVSALSKKAKALLCDVPFLCHFRRAVQLVDTHPYAEITNFLKTHRDKEEIVFRTLSYFDGVNFAARAKIPALFSVGLMDNISPPSTVFAAYNYYAGPKEIRIYPYNNHEGGGSFQAVEQVKFLKKLFEKG
B2: EZ-7: C277S-link1-DenP308-H6, SEQ ID NO: 429 (protein)
chain: MAFFDLPLEELKKYRPERYEEKDFDEFWEETLAESEKFPLDPVFERMESHLKTVEAYDVTFSGYRGQRIKGWLLVPKLEEEKLPCVVQYIGYNGGRGFPHDWLFWPSMGYICFVMDTRGQGSGWLKGDTPDYPEGPVDPQYPGFMTRGILDPRTYYYRRVFTDAVRAVEAAASFPQVDQERIVIAGGSQGGGIALAVSALSKKAKALLCDVPFLCHFRRAVQLVDTHPYAEITNFLKTHRDKEEIVFRTLSYFDGVNFAARAKIPALFSVGLMDNISPPSTVFAAYNYYAGPKEIRIYPYNNHEGGGSFQAVEQVKFLKKLFEKGGPGSGGAGSPGSAGGPGSTKPPRTPTANTSRPHHNFGSGGGGSPHHHHHH

Legend:
[1] = Maximum peracetic acid by targeted and untargeted CE-7 perhydrolase with sucrose octaacetate; type: biochemical; settings: substrate sucrose octaacetate; same reaction conditions as Table 20
Description: These ester substrates were tested for peracetic acid production using a targeted C277S perhydrolase variant, EZ-7 under the same reaction conditions used to generate date for Table 20. Peracetic acid production using propylene glycol diacetate or sucrose octaacetate with the EZ-7 perhydrolase system is shown in Table 21.

[2] = Two-step bleaching of coffee-tea stained bovine enamel, repeated rounds (Example 17); set-up: scale not given here; settings: for Whiteness Index Rd1: after round 1 of the 2-step process; for Whiteness Index Rd2: after round 2; for Whiteness Index Rd3: after round 3; for Whiteness Index Rd4: after round 4; for Whiteness Index Rd5: after round 5; for ΔWI: before to round 5; for Whiteness Index Before: two-step: 20 μM enzyme (or buffer) 10 min 37° C., rinsed, then 100 mM triacetin, 100 mM H2O2 10 min 37° C., before treatment
Description: Bovine enamel incisors were prepared as indicated in Example 1. The stained enamel blocks were embedded in SILLY PUTTY® (Crayola LLC, Easton, Pa.) filled well, a 24-well plate to protect the dentin backside from solution exposure. A solution of 20 μM of each enzyme in 10 mM phosphate buffer, pH 7.2 was prepared and 500 μL of the enzyme solution was added to each enamel blocks and incubated for 10 min at 37° C. The enamel block was then rinsed three times with an additional 500 μL of buffer each time. The enamel blocks were transferred and embedded in a fresh putty well for the whitening process. A solution (200 μL) containing 100 mM phosphate buffer, 100 mM triacetin, 100 mM H2O2, pH 7.2 was added to the enamel and incubated for 10 min at 37° C. The enamel block was removed from the well using forceps, then rinsed and stored in a 1.5 mL of water filled well for color measurements. The 2-step process was repeated 5 times (50 min total). Each sample data point represents 2 repeats of independent enamel blocks.

[3] = Two-step bleaching of coffee-tea stained bovine enamel (Example 16)
Description: Bovine enamel incisors were prepared as indicated in Example 1. The stained enamel blocks were embedded in a 48 well plate to protect the dentin backside from solution exposure. A solution of 10 μM of each enzyme in 10 mM phosphate buffer, pH 7.2 was prepared and 500 μL of solution was incubated with each enamel substrate for 60 min. The enzyme solution was removed and each well was rinsed three times with an additional 500 μL of buffer. The enamel blocks were placed in a fresh well for the whitening process. A solution with a final concentration of 40 mM triacetin, 100 mM H2O2 in 50 mM phosphate pH 7.2 buffer was freshly prepared and 500 μL of solution was added to each enamel block. Over the course of 1 hr the enamel blocks were removed and a color measurement was obtained and then each was returned to the solution in the well plate. The whiteness index for each sample was monitored.

[4] = Peracetic acid generation from hydroxyapatite bound CE-7 perhydrolase fusions (Example 8); type: biochemical; settings: hydroxyapatite particles exposed to 10 μM enzyme, washed; 100 mM triacetin, 100 mM H2O2, 30 min, 37° C.; no enzyme 30-118.8
Outline: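 Enzyme (10 μM) bound to washed hydroxyapatite particles in 10 mM phosphate pH 7.2 for 30 min, washed three times, then given 100 mM triacetin plus 100 mM H2O2 in 100 mM phosphate pH 7.2, 30 min, 37 °C. Peracetic acid read by ABTS oxidation at 405 nm against standard curve; no-enzyme control.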

[5] = Peracetic acid generated in solution by C277S CXH fusions (Example 9); settings: 0.5 μM enzyme, sarkosyl buffer, 100 mM triacetin, 100 mM H2O2, pH 7.2, 10 min, 37° C.
[6] = Peracetic acid from C277S CXH fusions exposed to hydroxyapatite discs (Example 9); settings: no enzyme control subtracted
[7] = Peracetic acid generated in solution by CE-7 perhydrolase fusions (Example 8); type: biochemical; settings: 0.5 μM enzyme, 100 mM triacetin, 100 mM H2O2, pH 7.2, 10 min, 37° C.; no enzyme 378.9
Description: The detection of peracetic acid followed the method described in Pinkernell et. al. (Analyst, 1997, 122, 567) using colorimetric detection of 2,2′-azino-bis(3-ethylbenzothiazoline(-6-sulfonate (ABTS) oxidation by peracetic acid. Following the formation of peracetic acid with the addition of triacetin and hydrogen peroxide, 90 μL of solution was added to 10 μL of 0.1 M H3PO4 in a well plate. 50 μL of 1 M acetic acid, 50 μL of 0.5 g/L ABTS and 50 μL of 0.002 g/L of KI was added. The solution was allowed to develop for 5 min. The absorbance of the solution was measured at 405 nm using a microplate reader. The peracetic acid concentration was calculated based on a standard curve developed simultaneously using peracetic acid reagent solution.
Perhydrolase enzymes listed in Table 6 were assessed for solution activities. The method to measure the perhydrolase in solution activity was described in Example 7 by making a 500 μL solution containing 0.5 μM of enzyme, 100 mM triacetin, 100 mM H2O2 in 100 mM phosphate buffer, pH 7.2. The solution was mixed and incubated for 10 min at 37° C. A 10 μL aliquot was removed and diluted for detection as described in Example 7. Peracetic acid concentration was determined using a standard curve generated with a stock solution of peracetic acid (Aldrich). The experiment was also performed with no enzyme present as a control.

Row | Molecule | Maximum Peracetic Acid (ppm), Sucrose octaacetate [1] [ppm] | Whiteness Index Rd1 [2] | Whiteness Index Rd2 [2] | Whiteness Index Rd3 [2] | Whiteness Index Rd4 [2] | Whiteness Index Rd5 [2] | ΔWI [2] | Whiteness Index Before [2] | further results
1 | B1 | 2768 | −129.5 | −129.5 | −129.2 | −125.1 | −122.1 | 17.9 | −140.0 | retention on hydroxyapatite and enamel (in words) ([3]; 2-step process): poor retention on hydroxyapatite and enamel; Whiteness Index 0 min ([3]; two-step: 10 μM enzyme 60 min, rinsed, then 40 mM triacetin, 100 mM H2O2, pH 7.2, before step 2): −152.7; ΔWI ([3]; two-step, 0 to 60 min): 56.6; Whiteness Index 5 min ([3]; two-step, 5 min in triacetin/H2O2): −126.2; Whiteness Index 15 min ([3]; two-step, 15 min in triacetin/H2O2): −138.9; Whiteness Index 30 min ([3]; two-step, 30 min in triacetin/H2O2): −144.8; Whiteness Index 45 min ([3]; two-step, 45 min in triacetin/H2O2): −107.3; Whiteness Index 60 min ([3]; two-step, 60 min in triacetin/H2O2): −96.1
2 | B2 | 2070 | −106.7 | −96.0 | −88.7 | −85.7 | −76.6 | 44.2 | −120.8 | Peracetic acid (ppm) [4]: 4453.7 ppm; Peracetic acid (ppm) In Solution [5]: 5471 ppm; Peracetic acid (ppm) Exposed to Hydroxyapatite, Disc ([6]; disc-bound enzyme, 100 mM triacetin, 100 mM H2O2, 30 min, 37° C.): 2017 ppm; Peracetic acid (ppm) Exposed to Hydroxyapatite, Supernatant ([6]; unbound enzyme in supernatant after 10 μM enzyme on disc): 4864 ppm; PAA (ppm) [7]: 4877.2 ppm

Source: patent publication US8663616B2, “Enzymatic peracid generation for use in oral care products” (E I du Pont de Nemours and Company, priority 2010, dated 2014)
